In FireProtDB (doi:10.1016/j.jmb.2005.05.003):

Conditions: Equus caballus, Thermal, CD, Potassium citrate 10 mM, KCl 0.1 mM, reversible: yes, whole UniProt chain shown

B1: Beta-lactoglobulin-1 wild type, P02758 (protein)
chain: MKCLLLALGLALMCGIQATNIPQTMQDLDLQEVAGKWHSVAMAASDISLLDSESAPLRVYIEKLRPTPEDNLEIILREGENKGCAEKKIFAEKTESPAEFKINYLDEDTVFALDTDYKNYLFLCMKNAATPGQSLVCQYLARTQMVDEEIMEKFRRALQPLPGRVQIVPDLTRMAERCRI
Tm (pH 3.65): 47.5 °C | unfolding enthalpy (van 't Hoff) (pH 3.65): 37.8 kcal/mol | Tm (pH 3.71): 49.4 °C | unfolding enthalpy (van 't Hoff) (pH 3.71): 44.2 kcal/mol | Tm (pH 4): 58.3 °C | unfolding enthalpy (van 't Hoff) (pH 4): 51.5 kcal/mol | Tm (pH 4.2): 59.7 °C | unfolding enthalpy (van 't Hoff) (pH 4.2): 57.1 kcal/mol | Tm (pH 4.22): 61.4 °C | unfolding enthalpy (van 't Hoff) (pH 4.22): 57.8 kcal/mol | Tm (pH 4.23): 57.3 °C | unfolding enthalpy (van 't Hoff) (pH 4.23): 52.7 kcal/mol
